Data on 2 substances can be found in patent US5854049.

Experiment [1] concerns the target native, full-length mature SK protein derived from Streptococcus equisimilus (nSK) (Streptococcus equisimilus).
Experiment [2] has as its target rSK (fusion protein with maltose binding protein linked to the amino terminus of nSK) (Streptococcus equisimilis (SK part)).
For experiment [3], the target named is purified human Glu-plasminogen (American Diagnostica, 98% Glu-type plasminogen) (human) (UniProt P00747).
Experiment [4] shares this target. The source holds these as a separate data set.

Consider plasmin (from UniProt P00747) (enzyme), for which the results for the cleavage of SK by plasmin after mixing with excess Glu-plasminogen (immunoblot with monoclonal anti-SK antibodies) in experiment [1] and in experiment [2] were under 30 s and 1 min, respectively.

In turn, “native, full-length mature SK protein derived from Streptococcus equisimilus (nSK)” showed an amidolytic kinetic parameters of the SK-PAC on S2251: Km (µM), Kcat (S^-1), kcat/Km (µM^-1 S^-1) in experiment [3] of 0.226 µM^-1 S^-1. This substance also registered a lag phase of plasminogen activation (S2251 hydrolysis, absorption at 405 nm, 21° C.) in experiment [4] of under 50 s.
